According to US20110262474A1:

Tests used:
[1] = target: recombinant WT HIV-1 JRCSF gp120 full-length polypeptide (HIV-1 subtype B, strain JRCSF) (UniProt P20871); experiment: SPR (Biacore 2000), KA = ka/kd from a single-site fit; * best curve fit, dissociation slower than the limit of detection of the instrument
[2] = target: recombinant WT HIV-1 JRCSF gp120 core polypeptide (HIV-1 subtype B, strain JRCSF) (UniProt P20871); experiment: as above
[3] = target: recombinant WT HIV-1 JRCSF gp120 full-length polypeptide (HIV-1 subtype B, strain JRCSF) (UniProt P20871); experiment: SPR (Biacore 2000), mAb captured on anti-human gamma chain antibody, gp120 injected
[4] = target: recombinant WT HIV-1 JRCSF gp120 core polypeptide (HIV-1 subtype B, strain JRCSF) (UniProt P20871); experiment: as above
[5] = target: chimeric gp120 core polypeptide variant L7-043CDC; experiment: SPR (Biacore 2000), mAb captured on anti-human gamma chain antibody, gp120 core injected
[6] = target: recombinant WT HIV-1 JRCSF gp120 full-length polypeptide (HIV-1 subtype B, strain JRCSF) (UniProt P20871); experiment: SPR (Biacore 2000), KA = ka/kd from a single-site fit
[7] = target: chimeric gp120 core polypeptide variant L7-043CDC; experiment: as above
[8] = target: chimeric gp120 core polypeptide variant L7-043; experiment: as above
[9] = target: recombinant WT HIV-1 JRCSF gp120 core polypeptide (HIV-1 subtype B, strain JRCSF) (UniProt P20871); experiment: as above
[10] = target: amphotropic MLV envelope protein on pseudovirus (amphotropic murine leukemia virus); experiment: cell-based or functional assay
[11] = target: HIV-1 92RW020 gp160 envelope protein on pseudovirus (HIV-1 subtype A, strain 92RW020); experiment: cell-based or functional assay
[12] = target: HIV-1 93TH305 gp160 envelope protein on pseudovirus (HIV-1 subtype E, strain 93TH305); experiment: cell-based or functional assay
[13] = target: HIV-1 6535 gp160 envelope protein on pseudovirus (HIV-1 subtype B, strain 6535); experiment: cell-based or functional assay
[14] = target: HIV-1 QH0692 gp160 envelope protein on pseudovirus (HIV-1 subtype B, strain QH0692); experiment: cell-based or functional assay
[15] = target: HIV-1 93BR029 gp160 envelope protein on pseudovirus (HIV-1 subtype F, strain 93BR029); experiment: cell-based or functional assay
[16] = target: HIV-1 1196 gp160 envelope protein on pseudovirus (HIV-1 subtype B, strain 1196); experiment: cell-based or functional assay
[17] = target: HIV-1 VLGCG4 gp160 envelope protein on pseudovirus (HIV-1 subtype G, strain VLGCG4); experiment: cell-based or functional assay
[18] = target: HIV-1 BaL gp160 envelope protein on pseudovirus (HIV-1 subtype B, strain BaL); experiment: cell-based or functional assay
[19] = target: HIV-1 93BR020 gp160 envelope protein on pseudovirus (HIV-1 subtype F, strain 93BR020); experiment: cell-based or functional assay
[20] = target: HIV-1 JRCSF gp160 envelope protein on pseudovirus (HIV-1 subtype B, strain JRCSF) (UniProt P20871); experiment: cell-based or functional assay
[21] = target: HIV-1 NL4-3 gp160 envelope protein on pseudovirus (HIV-1 subtype B, strain NL4-3); experiment: cell-based or functional assay
[22] = target: HIV-1 92HT594 gp160 envelope protein on pseudovirus (HIV-1 subtype B, strain 92HT594); experiment: cell-based or functional assay
[23] = target: HIV-1 SF162 gp160 envelope protein on pseudovirus (HIV-1 subtype B, strain SF162); experiment: cell-based or functional assay
[24] = target: HIV-1 93MW960 gp160 envelope protein on pseudovirus (HIV-1 subtype C, strain 93MW960); experiment: cell-based or functional assay
[25] = target: HIV-1 QZ4589 gp160 envelope protein on pseudovirus (HIV-1 subtype B, strain QZ4589); experiment: cell-based or functional assay
[26] = target: chimeric gp120 core polypeptide variant L7-043; experiment: SPR (Biacore 2000), KA relative to the JR-CSF gp120 core row (= 1)

Substance: human monoclonal antibody IgG1b6
- Ka [1]: 4.08e+11 M⁻¹
- Ka [2]: 6.32e+12 M⁻¹

Substance: human monoclonal antibody IgG1b12
- Ka [3]: > 1e+07 M⁻¹
- Ka [4]: > 1e+07 M⁻¹
- fold increase in b12 affinity against JRCSF gp120 core polypeptide [5]: > 7.5 fold
- Ka [6]: 3.62e+07 M⁻¹
- Ka [7]: 2.58e+08 M⁻¹
- Ka [8]: 3.8e+08 M⁻¹
- Ka [9]: 3.43e+07 M⁻¹
- IC50 neutralization titer of pseudovirus (luciferase entry assay) [10]: > 2.5 µg/mL
- IC50 neutralization titer of pseudovirus (luciferase entry assay) [11]: 1.67 µg/mL
- IC50 neutralization titer of pseudovirus (luciferase entry assay) [12]: 0.71 µg/mL
- IC50 neutralization titer of pseudovirus (luciferase entry assay) [13]: 0.64 µg/mL
- IC50 neutralization titer of pseudovirus (luciferase entry assay) [14]: 0.1 µg/mL
- IC50 neutralization titer of pseudovirus (luciferase entry assay) [15]: 1.67 µg/mL
- IC50 neutralization titer of pseudovirus (luciferase entry assay) [16]: 0.48 µg/mL
- IC50 neutralization titer of pseudovirus (luciferase entry assay) [17]: 0.04 µg/mL
- IC50 neutralization titer of pseudovirus (luciferase entry assay) [18]: 0.01 µg/mL
- IC50 neutralization titer of pseudovirus (luciferase entry assay) [19]: 2.08 µg/mL
- IC50 neutralization titer of pseudovirus (luciferase entry assay) [20]: 0.06 µg/mL
- IC50 neutralization titer of pseudovirus (luciferase entry assay) [21]: 0.01 µg/mL
- IC50 neutralization titer of pseudovirus (luciferase entry assay) [22]: 0.02 µg/mL
- IC50 neutralization titer of pseudovirus (luciferase entry assay) [23]: 0.01 µg/mL
- IC50 neutralization titer of pseudovirus (luciferase entry assay) [24]: 0.06 µg/mL
- IC50 neutralization titer of pseudovirus (luciferase entry assay) [25]: 0.03 µg/mL
- Fold Increase [26]: 11
